Paper PMC10239695
One block for each molecule: values may come before it.

Columns and labels:
[1] = substrate: T1, BSSαγ complex (UniProt O68395)
T1 sequence 1: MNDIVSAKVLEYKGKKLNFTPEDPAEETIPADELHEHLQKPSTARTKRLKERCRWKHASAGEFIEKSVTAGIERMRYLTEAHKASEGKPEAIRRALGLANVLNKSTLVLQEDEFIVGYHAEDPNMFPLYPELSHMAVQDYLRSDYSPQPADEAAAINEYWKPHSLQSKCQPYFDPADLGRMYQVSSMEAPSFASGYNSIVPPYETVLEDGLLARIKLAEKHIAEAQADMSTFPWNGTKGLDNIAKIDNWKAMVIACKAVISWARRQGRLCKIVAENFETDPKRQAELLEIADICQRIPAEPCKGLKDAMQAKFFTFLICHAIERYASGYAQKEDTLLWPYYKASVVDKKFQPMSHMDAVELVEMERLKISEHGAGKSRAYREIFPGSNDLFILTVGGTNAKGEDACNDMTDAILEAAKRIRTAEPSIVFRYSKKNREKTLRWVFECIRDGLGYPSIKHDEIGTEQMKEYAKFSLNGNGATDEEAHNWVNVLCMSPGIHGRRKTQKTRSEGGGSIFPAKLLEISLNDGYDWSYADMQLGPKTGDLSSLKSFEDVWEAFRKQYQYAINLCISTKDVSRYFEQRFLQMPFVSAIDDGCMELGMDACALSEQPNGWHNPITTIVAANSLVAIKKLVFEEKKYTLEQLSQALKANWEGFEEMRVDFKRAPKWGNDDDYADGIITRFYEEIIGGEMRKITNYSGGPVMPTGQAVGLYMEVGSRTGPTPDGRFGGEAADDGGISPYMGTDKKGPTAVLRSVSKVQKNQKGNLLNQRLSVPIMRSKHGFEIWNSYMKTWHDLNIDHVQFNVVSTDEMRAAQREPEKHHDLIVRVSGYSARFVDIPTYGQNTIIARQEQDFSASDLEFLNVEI
T1 sequence 2: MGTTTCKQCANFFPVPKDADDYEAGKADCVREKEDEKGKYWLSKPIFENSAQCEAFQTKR

AdoMet cleavage by as purified IbsAE with IBSSαγ and IBSSβ added (dAdo by LCMS, 2 h endpoint, n = 3); 47.6 μM dAdo without IBSSβ (IBSSαγ complex): 7.2 μM dAdo | AdoMet cleavage by reconstituted IbsAE with IBSSαγ and IBSSβ added (dAdo by LCMS, 2 h endpoint, n = 3); 46.7 μM dAdo without IBSSβ (IBSSαγ complex): 5.4 μM dAdo
Molecule: 4-isopropylbenzylsuccinate synthase beta subunit (IBSSβ), affinity tag removed (from UniProt A0A096ZP03 1-73) (natural protein)

AdoMet cleavage by as purified IbsAE with IBSSαγ added (dAdo by LCMS, 2 h endpoint, n = 3); 1.1 μM dAdo without IBSSαγ (IBSSαγ complex): 47.6 μM dAdo | AdoMet cleavage by reconstituted IbsAE with IBSSαγ added (dAdo by LCMS, 2 h endpoint, n = 3); 1.4 μM dAdo without IBSSαγ (IBSSαγ complex): 46.7 μM dAdo
Molecule: 4-isopropylbenzylsuccinate synthase activating enzyme (IbsAE)

B1: Benzylsuccinate synthase beta subunit (BSSβ), affinity tag removed (natural protein)
chain: MEGSNMETGQNLQNQPHTEVGTARPCRSCKWQTPDPTDPHRGQCTANRHAMGGVWKRWLRDVENTTCSRHEEGKLSFRDHV
benzylsuccinate formed from fumarate and toluene by activated BSSαγ (40 μM) with BSSβ (40 μM) added (assay yield by QToF-LCMS, n = 9); 0.7% without BSSβ (% assay yield) [1]: 92.3
